Experimental data published in patent US20190040375A1.

Legend:
[1] = molecular target: gliadin-Rmep digest (mixed gliadins, 250 ug/ml, incubated with Rmep, 57 ug/ml); assay: R5 sandwich ELISA; gliadins 250 ug/ml with Rmep 57 ug/ml, t=0 sample
[2] = molecular target: gliadin-subtilisin A digest (mixed gliadins, 250 ug/ml, incubated with subtilisin A, 57 ug/ml); assay: R5 sandwich ELISA; gliadins 250 ug/ml with subtilisin A 57 ug/ml, 15 min
[3] = molecular target: gliadin-subtilisin A digest (mixed gliadins, 250 ug/ml, incubated with subtilisin A, 57 ug/ml); assay: R5 sandwich ELISA; gliadins 250 ug/ml with subtilisin A 57 ug/ml, t=0 sample
[4] = molecular target: gliadin-Rmep digest (mixed gliadins, 250 ug/ml, incubated with Rmep, 57 ug/ml); assay: G12 sandwich ELISA; gliadins 250 ug/ml with Rmep 57 ug/ml, 2 h
[5] = molecular target: gliadin-Rmep digest (mixed gliadins, 250 ug/ml, incubated with Rmep, 57 ug/ml); assay: G12 sandwich ELISA; gliadins 250 ug/ml with Rmep 57 ug/ml, 30 min
[6] = molecular target: gliadin-subtilisin A digest (mixed gliadins, 250 ug/ml, incubated with subtilisin A, 57 ug/ml); assay: G12 sandwich ELISA; gliadins 250 ug/ml with subtilisin A 57 ug/ml, 2 h
[7] = molecular target: gliadin-subtilisin A digest (mixed gliadins, 250 ug/ml, incubated with subtilisin A, 57 ug/ml); assay: G12 sandwich ELISA; gliadins 250 ug/ml with subtilisin A 57 ug/ml, t=0 sample

Row | Substance | reduction in antibody binding compared to the control [1] [%] | elimination of R5 epitopes (ELISA) [2] [%] | elimination of R5 epitopes (ELISA) [3] [%] | decrease in antibody binding [4] [%] | decrease in antibody binding [5] [%] | degradation of G12 epitopes (ELISA) [6] [%] | degradation of G12 epitopes (ELISA) [7] [%]
1 | R5 monoclonal antibody (… Gliadin, R-Biopharm) | 46 | 100 | 90 |  |  |  | 
2 | G12 monoclonal antibody (AgraQuant ELISA Gluten G12, Romer labs) |  |  |  | 85 | 65 | 45 | 22
